According to patent CN111072775A (OLYMVAX BIOPHARMACEUTICALS INC; UNIV ARMY MEDICAL, dated 2020):
Numbering of substitutions follows the chain as printed.

B1: HRP标记的抗体3F6 (antibody, V domains shown)
VH: VQLQQSGPSLVKPSQTLSLTCSVTGDSITNGYWNWIRKFPGNKLEYMGYISYSGTTYYNPSLKSRISITRDTSKNQYYLQLNSVTTEDTATYYCSRIRPYRHLGFDYWGQGTTVTVSS
VL: DIVMTQTPASLAVSLGQRATISCKASQSVDYGGDSYMNWYQQKPGQPPKLLIYAASNLESGIPARFSGSGSGTDFTLNIHPVEEEDGATYYCQQSNEDPWTFGGGTKLEIK
modifications: HRP label by the sodium periodate oxidation method; chain and site not stated
notes: also called HRP标记抗体 (3F6)
B2: HRP标记的抗体3C10 (antibody, V domains shown)
VH: B1 VH with Q2K, Q5E
VL: B1 VL with T7S, P8T
modifications: HRP label by the sodium periodate oxidation method; chain and site not stated
notes: also called HRP标记抗体 (3C10); 酶结合物(抗体3C10)

Molecular target: T1, MntC蛋白 (锰离子转运蛋白C亚单位, 重组MntC蛋白) (金黄色葡萄球菌 (Staphylococcus aureus))
T1 construct: Recombinant MntC used as immunogen and as ELISA coating antigen; also called MntC重组蛋白; MntC蛋白标准品
T1 chain: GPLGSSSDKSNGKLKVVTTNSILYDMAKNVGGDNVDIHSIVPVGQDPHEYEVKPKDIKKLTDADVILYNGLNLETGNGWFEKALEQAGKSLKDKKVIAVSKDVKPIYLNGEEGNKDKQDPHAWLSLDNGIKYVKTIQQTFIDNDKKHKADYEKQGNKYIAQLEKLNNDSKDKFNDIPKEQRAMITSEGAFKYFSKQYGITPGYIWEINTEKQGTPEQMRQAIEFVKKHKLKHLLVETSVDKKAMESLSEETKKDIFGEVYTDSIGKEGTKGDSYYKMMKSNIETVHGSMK
Assay: ELISA on MntC with HRP-labelled antibody

Binder	binding result
B1	binds
B2	binds
